Test results from publication PMC10575957.

How the values were obtained:
Assay in all cases: cryo-EM structure; portal-tail complex of the native P-SCSP1u virion, symmetry-mismatch reconstruction, C6 symmetry, 3.8 Å; virions in SM buffer
[1] = target: P-SCSP1u portal protein (gp16) (cyanophage P-SCSP1u)
[2] = target: P-SCSP1u fiber protein (gp28) (cyanophage P-SCSP1u)
[3] = target: P-SCSP1u adaptor protein (gp22) (cyanophage P-SCSP1u)
[4] = target: P-SCSP1u nozzle protein (gp23) (cyanophage P-SCSP1u)

P-SCSP1u portal protein (gp16) (natural protein)
stoichiometry N [1]: 12

P-SCSP1u fiber protein (gp28) (natural protein)
stoichiometry N [2]: 3

P-SCSP1u adaptor protein (gp22) (natural protein)
stoichiometry N [3]: 12

P-SCSP1u nozzle protein (gp23) (natural protein)
stoichiometry N [4]: 6
